Here are results for 8 sequences from the DeepSol protein solubility set.

The nature of this series: soluble on expression in E. coli; label from the status in PepcDB or PDB records.
Consider “SNGEEEFFDAVTGFDSDNSSGEFSEANQKVTGMIDLDTSKNNRIGKTGERPSQENGIQKHRTSLPAPMFSRSDFSVWTILKKCVGLELSKITMPIAFNEPLSFLQRITEYMEHVYLIHRASCQPQPLERMQSVAAFAVSAVASQWERTGKPFNPLLGETYELIREDLGFRFISEQVSHHPPISAFHSEGLNHDFLFHGSIYPKLKFWGKSVEAEPRGTITLELLKHNEAYTWTNPTCCVHNVIIGKLWIEQYGTVEILNHRTGHKCVLHFKPCGLFGKELHKVEGHIQDKNKKKLFMIYGKWTECLWGIDPVSYESFKKQERRGDHLRKAKLDEDSGKADSDVADDVPVAQETVQVIPGSKLLWRINTRPPNSAQMYNFTSFTVSLNELETGMEKTLPPTDCRLRPDIRGMENGNMDLASQEKERLEEKQREARRERAKEEAEWQTRWFYPGNNPYTGTPDWLYAGDYFERNFSDCPDIY”, for which the “soluble on expression in E. coli” value was “soluble”. “SNHFGNHCTNTSGVVCHNNYNCTIDNSIHYADTRGVVSHHRENITGHHGLVFPAATMNGYGPATSFPDMRENGHLMVNQNRPVTLRPSMSQQQPQPQPLSDEYNKVETGTAEQVYVPSRD”: the “soluble on expression in E. coli” value was “soluble”.

“SNMQLDTLRRIVQEINSSVSLHDSLDIMVNQVADAMKVDVCSIYLLDERNQRYLLMASKGLNPESVGHVSLQLSEGLVGLVGQREEIVNLENASKHERFAYLPETGEEIYNSFLGVPVMYRRKVMGVLVVQNKQPQDFSEAAESFLVTLCAQLSGVIAHAHAVGNIDVFRKPSNGA”: the “soluble on expression in E. coli” value is on record as “soluble”. For the sequence “SPDEIAQVRFLIVGRTGWIANMVAELLEQRGERYAFASFRLEQREACERELDALRPQRVLNVLGSLGVRTSTGARTTGARPSAVTYWAC”, the “soluble on expression in E. coli” value is given as “soluble”. Then “SPFDTGPELESQIRNQYGVDVHVVPVLDTLNEAETLDRVAMQAARTIGPLVDSNAIIGVAWGATLSAVSRHLTRKMTHDSIVVQLNGAGNMQTTGITYASDIMRRFGSAYGARVEQFPVPAFFDHASTKTAMWNERSVQRILDLQARMSIAIFGVGSVDSDYPSHVYAGGYLDEHDLTMLAADDVVGDVATVFFRSDGSSDGITLNERSTGPSHEQLRQVRRRICVVSGASKINGLQGALAAGLATDLILDEASARRLVSFNGHS”, with “soluble”. For the sequence “SPRKESPLRTAVDAAALTTSDIARQLEVKVQRMNTAHEREANAISSFQQAYGIASAHLDRLLLRIPELPLPEIDDRDVDGGRVRGTFASLQRHHQALDDAISAMHQASEKVYTIPGKQATQEQDPALAQLLSVEKRRRSLGHALETLAGRGVEAGTATGLELNRVSSQVNDLVARRDALLRQRESGVQEGGLDSEELEMELQLTTSVLQRLRADLLGERQAMEATAKRLDQASRAALEGERSFSDAVRDRAWGELDNV”, the “soluble on expression in E. coli” value was “not soluble”.

For “SRFTISAAKPEDCKDIERMIMELAVYENMPDQVKISHKELERDGFGPNPFYHCLVAEVPEEHKSKDGNTTVGYVIFFYTYSTWKGRTVYMEDLYVMPEFRGNGIGKALLGAVAKEAKDQLCSRLQFSVLDWNKPSLDFYMAKGAEDLTAKEGWHFLRFHGMALDNLAQEAP”, the “soluble on expression in E. coli” value is “soluble”. Turning to “SRRLVHDLLPPEVCSLLNPAAIYANNEISLRDVEVYGFDYDYTLAQYADALHPEIFSTARDILIEHYKSLLMKIDAFHYVQLGTAYRGLQPVPDEEVIELYGGTQHIPLYQMSGFYGKGPSIKQFMDIFSLPEMALLSCVVDYFLGHSLEFDQAHLYKDVTDAIRDVHVKGLMYQWIEQDMEKYILRGDETFAVLSRLVAHGKQLFLITNSPFSFVDKGMRHMVGPDWRQLFDVVIVQADKPSFFTDRRKPFRKLDEKGSLQWDRITRLEKGKIYRQGNLFDFLRLTEWRGPRVLYFGDHLYSDLADLMLRHGWRTGAIIPELEREIRIINTEQYMHSLTWQQALTGLLERMQTYQDAESRQVLAAWMKERQELRCITKALFNAQFGSIFRTFHNPTYFSRRLVRFSDLYMASLSCLLNYRVDFTFYPRRTPLQHEAPLWMDQLCTGCMKTPFLGDMAHIR”, the “soluble on expression in E. coli” value was “not soluble”.
